Test results published in US20190382504A1 (EUREKA THERAPEUTICS, published 2019).

B1: phage clone #52, anti-ESO157/HLA-A*02:01 scFv displayed on phage (scFv, V domains shown)
VH: QVQLVQSGAEVKKPGASVKVSCKASGYTFTSYGISWVRQAPGQGLEWMGWISAYNGNTNYAQKLQGRVTMTTDTSTSTAYMELRSLRSDDTAVYYCARYSGYYAGDSWGQGTLVTVSS
VL: QSVLTQPPSVSGAPGQRVTISCTGSSSNIGAGYDVHWYQQLPGTAPKLLIYGDTNRPSGVPDRISGSKSGTSASLAITGLQAEDEADYYCQSYDSNLYTYVFGTGTKVTVLG
B2: ESO157 BsAb #66 (anti-ESO157/HLA-A*02:01 scFv x anti-human CD3epsilon scFv, single chain) (bispecific antibody)
chain: QSVLTQPPSVSGAPGQRVTISCTGSSSNIGAGYDVHWYQQLPGTAPKLLIYGNSNRPSGVPDRFSGSKSGTSASLAITGLQAEDEADYYCQSYDSSLSGSWVFGGGTKLTVLGSRGGGGSGGGGSGGGGSLEMAEVQLVESGAEVKRPGASVKVSCKASGYTFTSYGISWVRQAPGQGLEWMGRFIPNLNKGNSAHKFEGRVSFTADKFTNTAYMELRGLKSDDTAVYYCARGDYGSDQWGQGTLVTVSS
B3: phage clone #66, anti-ESO157/HLA-A*02:01 scFv displayed on phage (scFv, V domains shown)
VH: EVQLVESGAEVKRPGASVKVSCKASGYTFTSYGISWVRQAPGQGLEWMGRFIPNLNKGNSAHKFEGRVSFTADKFTNTAYMELRGLKSDDTAVYYCARGDYGSDQWGQGTLVTVSS
VL: QSVLTQPPSVSGAPGQRVTISCTGSSSNIGAGYDVHWYQQLPGTAPKLLIYGNSNRPSGVPDRFSGSKSGTSASLAITGLQAEDEADYYCQSYDSSLSGSWVFGGGTKLTVLG
B4: ESO157 BsAb #76 (anti-ESO157/HLA-A*02:01 scFv x anti-human CD3epsilon scFv, single chain) (bispecific antibody)
chain: QSVVTQPPSLSGAPGQRVTISCNGSGSNIGAGYDVHWYQQLPGTAPKLLIYGNSNRPSGVPDRFSGSKSGTSASLAITGLQAEDEADYYCQSYDSSLSGWGIFGGGTKLTVLGSRGGGGSGGGGSGGGGSLEMAEVQLVQSGAEVKKPGSSVKVSCKASGGTFSSYAISWVRQAPGQGLEWMGGIIPIFGTANYAQKFQGRVTITADESTSTAYMELSSLRSEDTAVYYCARYDSYVYDEWGQGTLVTVSS
B5: ESO157 BsAb #148 (anti-ESO157/HLA-A*02:01 scFv x anti-human CD3epsilon scFv, single chain) (bispecific antibody, V domains shown, not shown: small tags and cut ends)
VH: EVQLVQSGAEVKKPGASVKVSCKASGGTFSSYAISWVRQAPGQGLEWMGGIIPIFGTANYAQKFQGRVTITADKSTSTAYMELSSLRSEDTAVYYCARSYWSWTPYDPWGQGTLVTVSS
VL: LPVLTQPPSVSVAPGKTARITCGGNNIGSKSVHWYQQKPGQAPVLVIYYDSDRPSGIPERFSGSNSGNTATLTISRVEAGDEADYYCQVWDSSSDHYVFGTGTKVTVL
B6: phage clone #116, anti-ESO157/HLA-A*02:01 scFv displayed on phage (scFv, V domains shown)
VH: QVQLVQSGPEVKKPGASMKVSCKASGYTFTKYGISWVRQAPGQGLEWMGWISADSGKTSYAQNLQGRVSLTIDTSTATAYMELRSLRSDDTAVYYCARDDDSWGQGTLVTVSS
VL: QSVLTQPPSVSAAPGQKVTISCSGSSSNIGNNYVSWYQQLPGTAPKLLIYDNNKRPSGIPDRFSGSKSGTSATLGITGLQTGDEADYYCGTWDSSLSAEVFGTGTKVTVLG
B7: ESO157 BsAb #52 (anti-ESO157/HLA-A*02:01 scFv x anti-human CD3epsilon scFv, single chain) (bispecific antibody)
chain: QSVLTQPPSVSGAPGQRVTISCTGSSSNIGAGYDVHWYQQLPGTAPKLLIYGDTNRPSGVPDRISGSKSGTSASLAITGLQAEDEADYYCQSYDSNLYTYVFGTGTKVTVLGSRGGGGSGGGGSGGGGSLEMAQVQLVQSGAEVKKPGASVKVSCKASGYTFTSYGISWVRQAPGQGLEWMGWISAYNGNTNYAQKLQGRVTMTTDTSTSTAYMELRSLRSDDTAVYYCARYSGYYAGDSWGQGTLVTVSS
B8: ESO157 BsAb #35 (anti-ESO157/HLA-A*02:01 scFv x anti-human CD3epsilon scFv, single chain) (bispecific antibody, not shown: small tags and cut ends)
scFv: QSVVTQPPSVSAAPGQKVTISCSGSSSNIGNNYVSWYQQLPGTAPKLLIYDNNKRPSGIPDRFSGSKSGTSATLGITGLQTGDEADYYCGTWDSSLSAWVFGGGTKLTVLGSRGGGGSGGGGSGGGGSLEMAQVQLVQSGAEVKKPGSSVKVSCKASGDTFSSYSISWVRQAPGQGLEWMGRIIPILGIANYAQKYQGRVTLSADKSTSTSYMELNSLRSEDTAVYYCARDWSYSIDYWGQGTLVTVSS
notes: also called NY-ESO-1 BsAb #35

Experiments:
[1] = biological target: ESO157 A8 peptide (…)/HLA-A*02:01 complex on T2 cells (human); experiment: FACS, peptide-pulsed T2 cells
[2] = biological target: ESO157 A5 peptide (…)/HLA-A*02:01 complex on T2 cells (human); experiment: FACS, peptide-pulsed T2 cells
[3] = biological target: T1, ESO157 wild type peptide (…)/HLA-A*02:01 complex on cells (human); experiment: FACS, peptide-pulsed T2 cells
T1 construct: also called ESO157-loaded T2 cells

[4] = biological target: ESO157 A3 peptide (…)/HLA-A*02:01 complex on T2 cells (human); experiment: FACS, peptide-pulsed T2 cells
[5] = biological target: T2, HLA-A*02:01 on T2 cells without peptide loading (human); experiment: FACS, peptide-pulsed T2 cells
T2 construct: TAP-deficient T2 cells, no peptide added; also called No peptide; T2 cells with no peptide loaded

[6] = biological target: ESO157 A6 peptide (…)/HLA-A*02:01 complex on T2 cells (human); experiment: FACS, peptide-pulsed T2 cells
[7] = biological target: ESO157 A4 peptide (…)/HLA-A*02:01 complex on T2 cells (human); experiment: FACS, peptide-pulsed T2 cells
[8] = biological target: ESO157 A7 peptide (…)/HLA-A*02:01 complex on T2 cells (human); experiment: FACS, peptide-pulsed T2 cells
[9] = biological target: ESO157 A1 peptide (…)/HLA-A*02:01 complex on T2 cells (human); experiment: FACS, peptide-pulsed T2 cells
[10] = biological target: T3, Bio-C9V mutant; experiment: phage ELISA: streptavidin plate coated with biotinylated peptide/HLA-A*02:01 monomer, phage detected with HRP-conjugated anti-M13 antibody, absorbance at 450 nm
T3 construct: also called biotinylated ESO157 C9V/HLA-A*02:01 complex monomer

[11] = biological target: biotinylated recombinant ESO157/HLA-A*02:05 complex (human); experiment: BLI (Octet QK), biotinylated pMHC on streptavidin sensor, BsAb 10 ug/mL
[12] = biological target: biotinylated recombinant ESO157/HLA-A*02:02 complex (human); experiment: as above
[13] = biological target: biotinylated recombinant ESO157/HLA-A*02:03 complex (human); experiment: as above
[14] = biological target: biotinylated recombinant ESO157/HLA-A*02:11 complex (human); experiment: as above
[15] = biological target: biotinylated recombinant ESO157/HLA-A*02:06 complex (human); experiment: as above
[16] = biological target: biotinylated recombinant ESO157/HLA-A*02:05 complex (human); experiment: as above; remark: listed apart in the source
[17] = biological target: biotinylated recombinant ESO157/HLA-A*02:02 complex (human); experiment: as above; remark: listed apart in the source
[18] = biological target: T4, biotinylated recombinant ESO157 wild type peptide/HLA-A*02:01 complex monomer (human); experiment: SPR (Biacore X100), biotinylated pMHC on streptavidin chip, BsAb as analyte
T4 construct: also called recombinant ESO157/HLA-A*02:01 complex; biotin-labelled ESO157 wild type peptide/HLA-A*02:01 complex

Row | Binder | MFI [1] | MFI [2] | MFI [3] | MFI [4] | MFI [5] | MFI [6] | MFI [7] | MFI [8] | MFI [9] | binding result [10] | Kd [11] | Kd [12] | Kd [13] | Kd [14] | Kd [15] | Kd [16] | Kd [17] | Kd [18] | koff [18] | kon [18]
1 | B1 | 19200 | 107 | 14500 | 17700 | 113 | 1880 | 4740 | 9890 | 14900 | binds | – | – | – | – | – | – | – | – | – | –
2 | B2 | – | – | – | – | – | – | – | – | – | – | 33 nM | 25 nM | 47 nM | 48 nM | 58 nM | – | – | – | – | –
3 | B3 | 90500 | 748 | 67000 | 38400 | 157 | 19800 | 48100 | 64400 | 82400 | binds | – | – | – | – | – | – | – | – | – | –
4 | B4 | – | – | – | – | – | – | – | – | – | – | 40 nM | 34 nM | 47 nM | 97 nM | 126 nM | – | – | – | – | –
5 | B5 | – | – | – | – | – | – | – | – | – | – | – | – | 85 nM | – | 224 nM | 18 nM | 19 nM | 6 nM | 0.000902 s⁻¹ | 151000 M⁻¹ s⁻¹
6 | B6 | 3400 | 1340 | 11300 | 16500 | 502 | 2640 | 1150 | 14400 | 19600 | binds | – | – | – | – | – | – | – | – | – | –
7 | B7 | – | – | – | – | – | – | – | – | – | – | 26 nM | 63 nM | 82 nM | – | 140 nM | – | – | – | – | –
8 | B8 | – | – | – | – | – | – | – | – | – | – | – | – | 50 nM | – | 78 nM | – | 22 nM | 14.1 nM | 0.00128 s⁻¹ | 90900 M⁻¹ s⁻¹
